Data from US20260201396, “New LoxPsym Sites for Large-Scale Orthogonal Cre-Mediated Recombination” (VIB VZW, published 2026).

T1: Cre recombinase (Punavirus P1)
T1 chain: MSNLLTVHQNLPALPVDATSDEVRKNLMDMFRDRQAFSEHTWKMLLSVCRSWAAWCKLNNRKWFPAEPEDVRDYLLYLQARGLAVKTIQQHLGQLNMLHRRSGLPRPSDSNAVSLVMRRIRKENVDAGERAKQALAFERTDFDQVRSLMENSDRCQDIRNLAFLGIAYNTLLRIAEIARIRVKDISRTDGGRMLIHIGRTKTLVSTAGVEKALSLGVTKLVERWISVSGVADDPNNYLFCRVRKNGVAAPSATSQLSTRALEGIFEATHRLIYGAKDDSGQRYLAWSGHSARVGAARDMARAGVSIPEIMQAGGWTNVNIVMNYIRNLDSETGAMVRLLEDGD

B1: LoxPsym-GTG (dsDNA)
DNA 1: ATAACTTCGTATAGTGTACACTATACGAAGTTAT
DNA 2: ATAACTTCGTATAGTGTACACTATACGAAGTTAT
B2: LoxPsym-CTG (dsDNA)
DNA 1: ATAACTTCGTATACTGTACAGTATACGAAGTTAT
DNA 2: ATAACTTCGTATACTGTACAGTATACGAAGTTAT
B3: LoxPsym-GTT (dsDNA)
DNA 1: ATAACTTCGTATAGTTTAAACTATACGAAGTTAT
DNA 2: ATAACTTCGTATAGTTTAAACTATACGAAGTTAT
B4: LoxPsym-CTT (dsDNA)
DNA 1: ATAACTTCGTATACTTTAAAGTATACGAAGTTAT
DNA 2: ATAACTTCGTATACTTTAAAGTATACGAAGTTAT
B5: LoxPsym-TCA (dsDNA)
DNA 1: ATAACTTCGTATATCATATGATATACGAAGTTAT
DNA 2: ATAACTTCGTATATCATATGATATACGAAGTTAT
B6: LoxPsym-TCT (dsDNA)
DNA 1: ATAACTTCGTATATCTTAAGATATACGAAGTTAT
DNA 2: ATAACTTCGTATATCTTAAGATATACGAAGTTAT
B7: LoxPsym-TAA (dsDNA)
DNA 1: ATAACTTCGTATATAATATTATATACGAAGTTAT
DNA 2: ATAACTTCGTATATAATATTATATACGAAGTTAT
B8: LoxPsym-CCA (dsDNA)
DNA 1: ATAACTTCGTATACCATATGGTATACGAAGTTAT
DNA 2: ATAACTTCGTATACCATATGGTATACGAAGTTAT
B9: LoxPsym-TCG (dsDNA)
DNA 1: ATAACTTCGTATATCGTACGATATACGAAGTTAT
DNA 2: ATAACTTCGTATATCGTACGATATACGAAGTTAT
B10: LoxPsym-TTT (dsDNA)
DNA 1: ATAACTTCGTATATTTTAAAATATACGAAGTTAT
DNA 2: ATAACTTCGTATATTTTAAAATATACGAAGTTAT
B11: LoxPsym-CTA (dsDNA)
DNA 1: ATAACTTCGTATACTATATAGTATACGAAGTTAT
DNA 2: ATAACTTCGTATACTATATAGTATACGAAGTTAT
B12: LoxPsym-CAA (dsDNA)
DNA 1: ATAACTTCGTATACAATATTGTATACGAAGTTAT
DNA 2: ATAACTTCGTATACAATATTGTATACGAAGTTAT
B13: LoxPsym-GAA (dsDNA)
DNA 1: ATAACTTCGTATAGAATATTCTATACGAAGTTAT
DNA 2: ATAACTTCGTATAGAATATTCTATACGAAGTTAT
B14: LoxPsym-GTA (dsDNA)
DNA 1: ATAACTTCGTATAGTATATACTATACGAAGTTAT
DNA 2: ATAACTTCGTATAGTATATACTATACGAAGTTAT
B15: LoxPsym-CCT (dsDNA)
DNA 1: ATAACTTCGTATACCTTAAGGTATACGAAGTTAT
DNA 2: ATAACTTCGTATACCTTAAGGTATACGAAGTTAT
B16: LoxPsym-GCA (dsDNA)
DNA 1: ATAACTTCGTATAGCATATGCTATACGAAGTTAT
DNA 2: ATAACTTCGTATAGCATATGCTATACGAAGTTAT
B17: LoxPsym-AGC (dsDNA)
DNA 1: ATAACTTCGTATAAGCTAGCTTATACGAAGTTAT
DNA 2: ATAACTTCGTATAAGCTAGCTTATACGAAGTTAT
B18: LoxPsym-CGA (dsDNA)
DNA 1: ATAACTTCGTATACGATATCGTATACGAAGTTAT
DNA 2: ATAACTTCGTATACGATATCGTATACGAAGTTAT
B19: LoxPsym-TGG (dsDNA)
DNA 1: ATAACTTCGTATATGGTACCATATACGAAGTTAT
DNA 2: ATAACTTCGTATATGGTACCATATACGAAGTTAT
B20: LoxPsym-ACC (dsDNA)
DNA 1: ATAACTTCGTATAACCTAGGTTATACGAAGTTAT
DNA 2: ATAACTTCGTATAACCTAGGTTATACGAAGTTAT
B21: LoxPsym-ATC (dsDNA)
DNA 1: ATAACTTCGTATAATCTAGATTATACGAAGTTAT
DNA 2: ATAACTTCGTATAATCTAGATTATACGAAGTTAT
B22: LoxPsym-GAC (dsDNA)
DNA 1: ATAACTTCGTATAGACTAGTCTATACGAAGTTAT
DNA 2: ATAACTTCGTATAGACTAGTCTATACGAAGTTAT
B23: LoxPsym-GTC (dsDNA)
DNA 1: ATAACTTCGTATAGTCTAGACTATACGAAGTTAT
DNA 2: ATAACTTCGTATAGTCTAGACTATACGAAGTTAT
B24: LoxPsym-AAG (dsDNA)
DNA 1: ATAACTTCGTATAAAGTACTTTATACGAAGTTAT
DNA 2: ATAACTTCGTATAAAGTACTTTATACGAAGTTAT
B25: LoxPsym-ACG (dsDNA)
DNA 1: ATAACTTCGTATAACGTACGTTATACGAAGTTAT
DNA 2: ATAACTTCGTATAACGTACGTTATACGAAGTTAT
B26: LoxPsym-ACA (dsDNA)
DNA 1: ATAACTTCGTATAACATATGTTATACGAAGTTAT
DNA 2: ATAACTTCGTATAACATATGTTATACGAAGTTAT
B27: LoxPsym-CTC (dsDNA)
DNA 1: ATAACTTCGTATACTCTAGAGTATACGAAGTTAT
DNA 2: ATAACTTCGTATACTCTAGAGTATACGAAGTTAT
B28: LoxPsym-TGA (dsDNA)
DNA 1: ATAACTTCGTATATGATATCATATACGAAGTTAT
DNA 2: ATAACTTCGTATATGATATCATATACGAAGTTAT
B29: LoxPsym-CGT (dsDNA)
DNA 1: ATAACTTCGTATACGTTAACGTATACGAAGTTAT
DNA 2: ATAACTTCGTATACGTTAACGTATACGAAGTTAT
B30: LoxPsym-AAC (dsDNA)
DNA 1: ATAACTTCGTATAAACTAGTTTATACGAAGTTAT
DNA 2: ATAACTTCGTATAAACTAGTTTATACGAAGTTAT
B31: LoxPsym-AGG (dsDNA)
DNA 1: ATAACTTCGTATAAGGTACCTTATACGAAGTTAT
DNA 2: ATAACTTCGTATAAGGTACCTTATACGAAGTTAT
B32: LoxPsym-AGA (dsDNA)
DNA 1: ATAACTTCGTATAAGATATCTTATACGAAGTTAT
DNA 2: ATAACTTCGTATAAGATATCTTATACGAAGTTAT
B33: LoxPsym-ATA (dsDNA)
DNA 1: ATAACTTCGTATAATATATATTATACGAAGTTAT
DNA 2: ATAACTTCGTATAATATATATTATACGAAGTTAT
B34: LoxPsym-GGG (dsDNA)
DNA 1: ATAACTTCGTATAGGGTACCCTATACGAAGTTAT
DNA 2: ATAACTTCGTATAGGGTACCCTATACGAAGTTAT
B35: LoxPsym-TTC (dsDNA)
DNA 1: ATAACTTCGTATATTCTAGAATATACGAAGTTAT
DNA 2: ATAACTTCGTATATTCTAGAATATACGAAGTTAT
B36: LoxPsym-GGC (dsDNA)
DNA 1: ATAACTTCGTATAGGCTAGCCTATACGAAGTTAT
DNA 2: ATAACTTCGTATAGGCTAGCCTATACGAAGTTAT
B37: LoxPsym-CCC (dsDNA)
DNA 1: ATAACTTCGTATACCCTAGGGTATACGAAGTTAT
DNA 2: ATAACTTCGTATACCCTAGGGTATACGAAGTTAT
B38: LoxPsym-ATT (dsDNA)
DNA 1: ATAACTTCGTATAATTTAAATTATACGAAGTTAT
DNA 2: ATAACTTCGTATAATTTAAATTATACGAAGTTAT
B39: LoxPsym-GCC (dsDNA)
DNA 1: ATAACTTCGTATAGCCTAGGCTATACGAAGTTAT
DNA 2: ATAACTTCGTATAGCCTAGGCTATACGAAGTTAT
B40: LoxPsym-AGT (dsDNA)
DNA 1: ATAACTTCGTATAAGTTAACTTATACGAAGTTAT
DNA 2: ATAACTTCGTATAAGTTAACTTATACGAAGTTAT

Biological target: T1, Cre recombinase
Assay: cell_activity; as above
Description: Similar to the development of the original LoxPsym site by Hoess et al. (1986 J Cell Biochem), we edited the spacer of the LoxP site to obtain new non-directional recombination sites. In doing so, we focused on altering the first three nucleotides of the spacer (FIG. 2), as it was shown before that changing the nucleotides at position 4 and 5 of the spacer (T and A respectively) prevents recombination (Hoess et al 1986). The last three nucleotides were adapted accordingly to ensure the spacer remained palindromic. As such, we were able to design maximally 63 new potential LoxPsym sites. To test if the Cre enzyme was still able to recombine the new LoxPsym variants, we conducted a fluorescent-based assay in yeast via genomic integration of a fluorescence cassette which was flanked by identical LoxPsym variants at both sites (FIGS. 3A and 3C). Recombination of functional LoxPsym variants enables the deletion of the fluorescence cassette. The fraction of non-fluorescent cells in the population after induction of Cre-mediated recombination, was used to determine the recombination efficiency of the new LoxPsym sites. To verify if this set-up is valid for estimation of the recombination efficiency, the dual-fluorescent-reporter system shown in FIG. 3A was used to assess the frequency of inversion/deletion over time. […] Recombination efficiencies largely altered between different LoxPsym variants (Table 1). 63 new LoxPsym variants were obtained with altering recombination efficiencies ranging from 13% to 89%.

First: B1
Second: B2
The activity of the first is lower: 40.3% for the first, 53.1% for the second.

Going from B3 to B4, the activity falls from 64.6% to 34.8%.

Compared with B5, B6 is higher in activity: 39.9% for the first, 43.3% for the second.

Compared with B7, B8 is lower in activity: 65.5% for the first, 53.9% for the second.

First: B9
Second: B10
The activity of the first is higher: 59% for the first, 44.5% for the second.

First: B11
Second: B12
The activity of the first is lower: 34.1% for the first, 59.7% for the second.

First: B13
Second: B14
The activity of the first is lower: 46.2% for the first, 64.3% for the second.

Compared with B15, B16 is higher in activity: 51.2% for the first, 59.1% for the second.

Compared with B17, B18 is higher in activity: 32.6% for the first, 54.4% for the second.

First: B19
Second: B20
The activity of the first is higher: 69.1% for the first, 41.4% for the second.

First: B21
Second: B22
The activity of the first is lower: 56.5% for the first, 67.4% for the second.

Compared with B23, B24 is lower in activity: 44.3% for the first, 44.1% for the second.

Compared with B25, B26 is lower in activity: 51.1% for the first, 38.3% for the second.

First: B27
Second: B28
The activity of the first is lower: 38.2% for the first, 58.8% for the second.

Going from B29 to B30, the activity falls from 46.9% to 46%.

Compared with B31, B32 is lower in activity: 49.1% for the first, 35.1% for the second.

Going from B33 to B34, the activity rises from 43.1% to 45.6%.

Going from B35 to B36, the activity falls from 62.3% to 43.6%.

First: B37
Second: B38
The activity of the first is higher: 67.2% for the first, 42.2% for the second.

Going from B39 to B40, the activity falls from 65.1% to 43.4%.
